# Reference: patent publication US20100272709A1 (GENERAL HOSPITAL, published 2010)
# Assays:
# [1] = molecular target: mouse monoclonal anti-dynamin GTPase antibody (Stressgene), recognizes the N-terminal GTPase domain; experiment: FLIM/FRET in fixed podocytes; lifetime of donor GTPase-a488 with acceptor DAM-a568; + control
# [2] = molecular target: mouse monoclonal anti-dynamin GTPase antibody (Stressgene), recognizes the N-terminal GTPase domain; experiment: FLIM/FRET in fixed podocytes; lifetime of donor GTPase-Alexa488 with acceptor DAM-Alexa568; + control
# [3] = molecular target: wild type dynamin (dynWT; recombinant dynamin 1) (UniProt Q05193)
# [4] = molecular target: dynK44A (dominant-negative dynamin mutant that cannot bind GTP) (UniProt Q05193); experiment: FLIM/FRET in fixed podocytes; donor GTPase-a488, acceptor Hudy1-a568; self-assembly
# [5] = molecular target: dynK44A (dominant-negative dynamin mutant that cannot bind GTP) (UniProt Q05193); experiment: FLIM/FRET in fixed podocytes treated with cytochalasin D; donor GTPase-a488, acceptor Hudy1-a568; self-assembly
# [6] = molecular target: mouse monoclonal anti-dynamin GTPase antibody (Stressgene), recognizes the N-terminal GTPase domain; experiment: FLIM/FRET in fixed podocytes; lifetime of donor GTPase-Alexa488 with acceptor GAR-Alexa568; - control
# [7] = molecular target: dynK44A (dominant-negative dynamin mutant that cannot bind GTP), Q05193
# [8] = molecular target: T1, dynR725A (GTP-hydrolysis impaired dynamin mutant)
# T1 chain: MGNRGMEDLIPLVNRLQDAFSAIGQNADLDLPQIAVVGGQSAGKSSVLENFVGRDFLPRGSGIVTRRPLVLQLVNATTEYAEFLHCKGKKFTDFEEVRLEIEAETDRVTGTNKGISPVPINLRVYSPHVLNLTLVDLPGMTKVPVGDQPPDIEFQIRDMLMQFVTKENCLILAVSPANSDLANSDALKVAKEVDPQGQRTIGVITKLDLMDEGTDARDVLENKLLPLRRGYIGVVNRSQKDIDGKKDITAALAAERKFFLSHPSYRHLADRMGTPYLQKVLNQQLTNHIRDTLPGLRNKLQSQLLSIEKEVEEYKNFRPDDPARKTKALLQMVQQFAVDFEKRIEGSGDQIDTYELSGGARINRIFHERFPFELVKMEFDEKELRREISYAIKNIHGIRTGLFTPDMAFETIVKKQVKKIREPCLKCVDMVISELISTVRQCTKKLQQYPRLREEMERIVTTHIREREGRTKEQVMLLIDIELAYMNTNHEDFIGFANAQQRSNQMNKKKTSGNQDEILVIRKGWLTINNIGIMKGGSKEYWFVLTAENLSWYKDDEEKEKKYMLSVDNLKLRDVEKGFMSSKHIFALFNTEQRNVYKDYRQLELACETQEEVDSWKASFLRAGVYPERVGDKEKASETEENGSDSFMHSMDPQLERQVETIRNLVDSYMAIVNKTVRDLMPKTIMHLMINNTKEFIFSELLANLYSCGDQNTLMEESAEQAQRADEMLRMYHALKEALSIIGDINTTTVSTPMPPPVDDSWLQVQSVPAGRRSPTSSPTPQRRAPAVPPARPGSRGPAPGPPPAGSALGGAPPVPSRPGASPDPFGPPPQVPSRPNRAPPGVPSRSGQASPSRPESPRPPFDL
# [9] = molecular target: wild type dynamin (dynWT; recombinant dynamin 1), Q05193
# [10] = molecular target: T2, EYFP-dynK44A fusion (UniProt Q05193); experiment: FLIM/FRET in live COS cells; lifetime of the ECFP donor; self-assembly
# T2 sequence (looked up): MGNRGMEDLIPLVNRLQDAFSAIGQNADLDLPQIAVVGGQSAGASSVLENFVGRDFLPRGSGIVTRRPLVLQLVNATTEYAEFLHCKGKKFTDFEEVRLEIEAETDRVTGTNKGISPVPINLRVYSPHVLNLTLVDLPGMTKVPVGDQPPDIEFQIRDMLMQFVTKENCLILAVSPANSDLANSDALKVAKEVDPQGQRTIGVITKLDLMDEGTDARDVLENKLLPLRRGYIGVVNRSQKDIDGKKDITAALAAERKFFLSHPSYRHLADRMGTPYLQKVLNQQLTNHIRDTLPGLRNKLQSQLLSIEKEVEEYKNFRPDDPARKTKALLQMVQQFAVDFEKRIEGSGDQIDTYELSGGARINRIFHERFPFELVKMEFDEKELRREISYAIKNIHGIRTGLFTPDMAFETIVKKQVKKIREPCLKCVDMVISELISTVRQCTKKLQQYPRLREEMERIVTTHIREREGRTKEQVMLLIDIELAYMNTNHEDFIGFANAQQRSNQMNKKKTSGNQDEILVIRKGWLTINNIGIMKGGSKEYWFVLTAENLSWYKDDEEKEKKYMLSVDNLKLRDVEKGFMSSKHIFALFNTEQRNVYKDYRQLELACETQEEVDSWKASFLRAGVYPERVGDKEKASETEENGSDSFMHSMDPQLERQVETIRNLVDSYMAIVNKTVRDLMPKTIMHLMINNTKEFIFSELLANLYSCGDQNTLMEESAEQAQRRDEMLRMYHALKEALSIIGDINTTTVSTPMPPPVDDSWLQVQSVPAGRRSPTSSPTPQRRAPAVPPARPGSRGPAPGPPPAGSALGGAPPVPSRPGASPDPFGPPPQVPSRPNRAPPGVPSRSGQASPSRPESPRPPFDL
# [11] = molecular target: dynI690K (assembly incompetent dynamin mutant) (UniProt Q05193); experiment: FLIM/FRET in fixed podocytes; donor GTPase-a488, acceptor Hudy1-a568; self-assembly
# [12] = molecular target: dynI690K (assembly incompetent dynamin mutant) (UniProt Q05193); experiment: FLIM/FRET in fixed podocytes treated with cytochalasin D; donor GTPase-a488, acceptor Hudy1-a568; self-assembly
molecule,measurement,setting,value
DAM-Alexa568 (secondary antibody used as positive control acceptor),Mean Lifetime (γ1),[1],1020
same,Mean Lifetime (γ1),[2],1020
purified cathepsin L (commercial),"cleavage of purified dynamin by CatL at pH 7.0 with GTP, Western blot",[3],addition of GTP resulted in the generation of a prominent proteolytic fragment with a molecular weight of -40 kD (p40)
same,"cleavage of purified dynamin by CatL at pH 7.0 with GTPγS, Western blot",[3],"addition of GTPγS, (non-hydrolysable GTP analog) did not stimulate cleavage by CatL"
same,"cleavage of purified dynamin by CatL at pH 7.0 without nucleotide, Western blot",[3],CatL did not cause significant cleavage of purified dynamin at pH 7.0
same,"cleavage of recombinant dynamin 1 by purified cathepsin L at pH 7.0 with GTP, Western blot with GTPase antibody",[3],addition of GTP in the assay resulted in significant cleavage of dynamin by cathepsin L
same,cleavage of recombinant dynamin 1 by purified cathepsin L at pH 7.0 with GTPγS,[3],"Addition of GTPγS, non-hydrolyzable GTP homolog abolished dynamin cleavage by cathepsin L"
same,"cleavage of recombinant dynamin by CatL at pH 5.0 and 6.0, silver staining",[3],"At pH 5.0 and 6.0, CatL was highly reactive towards recombinant dynamin, even in the absence of GTP"
same,"cleavage of recombinant dynamin by CatL at pH 5.0 and 6.0 with GTPγS, silver staining",[3],this proteolysis was completely inhibited by addition of GTP7S
same,cleavage of recombinant dynamin by cathepsin L at pH 5.0 and 6.0,[3],at pH 5.0 and 6.0 cathepsin L potently proteolyzed recombinant dynamin
"cathepsin B (CatB, Sigma)","cleavage of purified dynamin by CatB, Western blot",[3],incubation of dynamin with CatB generated p55 in a nucleotide-independent manner
dynK44A (dominant-negative dynamin mutant that cannot bind GTP) (from UniProt Q05193 1-864) (enzyme),Mean Lifetime (γ1),[4],2520 ps
same,Mean Lifetime (γ1),[5],2310 ps
"goat anti-rabbit-alexa568 (GARalexa568), negative control acceptor (antibody)",Mean Lifetime (γ1),[6],2420
endogenous mouse cathepsin L induced by LPS in podocytes and kidney (34 kD cytoplasmic short form) (protein) MRMIQLHNGEYSNGQHGFSMEMNAFGDMTNEEFRQVVNGYRHQKHKKGRLFQEPLMLKIPKSVDWREKGCVTPVKNQGQCGSCWAFSASGCLEGQMFLKTGKLISLSEQNLVDCSHAQGNQGCNGGLMDFAFQYIKENGGLDSEESYPYEAKDGSCKYRAEFAVANDTGFVDIPQQEKALMKAVATVGPISVAMDASHPSLQFYSSGIYYEPNCSSKNLDHGVLLVGYGYEGTDSNKNKYWLVKNSWGSEWGMEGYIKIAKDRDNHCGLATAASYPVVN,"p40 proteolytic fragment in cytosol of LPS-treated podocytes expressing dynK44A, Western blot",[7],"LPS treatment of podocytes expressing dynK44A, enzyme that cannot bind GTP, did not result in detectable levels of p40"
same,"p40 proteolytic fragment in cytosol of LPS-treated podocytes expressing dynR725A, Western blot",[8],LPS treatment of podocytes expressing dynR725A completely abolished presence of the p40
same,"p40 proteolytic fragment in cytosol of podocytes expressing dynR725A before LPS, Western blot",[8],significant amount of p40 was present in cells expressing dynR725A prior to LPS treatment
same,"p40 proteolytic fragment in cytosol of LPS-treated podocytes expressing dynWT, Western blot",[9],"Addition of specific cathepsin L inhibitor (Z-FF-FMK, Calbiochem), to the tissue cultured podocytes treated with LPS resulted specifically in the loss of p40"
"ECFP-dynK44A fusion (protein, UniProt Q05193 1-864, looked up, not shown: large carriers) MGNRGMEDLIPLVNRLQDAFSAIGQNADLDLPQIAVVGGQSAGASSVLENFVGRDFLPRGSGIVTRRPLVLQLVNATTEYAEFLHCKGKKFTDFEEVRLEIEAETDRVTGTNKGISPVPINLRVYSPHVLNLTLVDLPGMTKVPVGDQPPDIEFQIRDMLMQFVTKENCLILAVSPANSDLANSDALKVAKEVDPQGQRTIGVITKLDLMDEGTDARDVLENKLLPLRRGYIGVVNRSQKDIDGKKDITAALAAERKFFLSHPSYRHLADRMGTPYLQKVLNQQLTNHIRDTLPGLRNKLQSQLLSIEKEVEEYKNFRPDDPARKTKALLQMVQQFAVDFEKRIEGSGDQIDTYELSGGARINRIFHERFPFELVKMEFDEKELRREISYAIKNIHGIRTGLFTPDMAFETIVKKQVKKIREPCLKCVDMVISELISTVRQCTKKLQQYPRLREEMERIVTTHIREREGRTKEQVMLLIDIELAYMNTNHEDFIGFANAQQRSNQMNKKKTSGNQDEILVIRKGWLTINNIGIMKGGSKEYWFVLTAENLSWYKDDEEKEKKYMLSVDNLKLRDVEKGFMSSKHIFALFNTEQRNVYKDYRQLELACETQEEVDSWKASFLRAGVYPERVGDKEKASETEENGSDSFMHSMDPQLERQVETIRNLVDSYMAIVNKTVRDLMPKTIMHLMINNTKEFIFSELLANLYSCGDQNTLMEESAEQAQRRDEMLRMYHALKEALSIIGDINTTTVSTPMPPPVDDSWLQVQSVPAGRRSPTSSPTPQRRAPAVPPARPGSRGPAPGPPPAGSALGGAPPVPSRPGASPDPFGPPPQVPSRPNRAPPGVPSRSGQASPSRPESPRPPFDL",Mean Lifetime (γ1) ps,[10],1860 ps
"dynI690K (assembly incompetent dynamin mutant) (enzyme, UniProt Q05193 1-864, looked up) MGNRGMEDLIPLVNRLQDAFSAIGQNADLDLPQIAVVGGQSAGKSSVLENFVGRDFLPRGSGIVTRRPLVLQLVNATTEYAEFLHCKGKKFTDFEEVRLEIEAETDRVTGTNKGISPVPINLRVYSPHVLNLTLVDLPGMTKVPVGDQPPDIEFQIRDMLMQFVTKENCLILAVSPANSDLANSDALKVAKEVDPQGQRTIGVITKLDLMDEGTDARDVLENKLLPLRRGYIGVVNRSQKDIDGKKDITAALAAERKFFLSHPSYRHLADRMGTPYLQKVLNQQLTNHIRDTLPGLRNKLQSQLLSIEKEVEEYKNFRPDDPARKTKALLQMVQQFAVDFEKRIEGSGDQIDTYELSGGARINRIFHERFPFELVKMEFDEKELRREISYAIKNIHGIRTGLFTPDMAFETIVKKQVKKIREPCLKCVDMVISELISTVRQCTKKLQQYPRLREEMERIVTTHIREREGRTKEQVMLLIDIELAYMNTNHEDFIGFANAQQRSNQMNKKKTSGNQDEILVIRKGWLTINNIGIMKGGSKEYWFVLTAENLSWYKDDEEKEKKYMLSVDNLKLRDVEKGFMSSKHIFALFNTEQRNVYKDYRQLELACETQEEVDSWKASFLRAGVYPERVGDKEKASETEENGSDSFMHSMDPQLERQVETIRNLVDSYMAIVNKTVRDLMPKTIMHLMKNNTKEFIFSELLANLYSCGDQNTLMEESAEQAQRRDEMLRMYHALKEALSIIGDINTTTVSTPMPPPVDDSWLQVQSVPAGRRSPTSSPTPQRRAPAVPPARPGSRGPAPGPPPAGSALGGAPPVPSRPGASPDPFGPPPQVPSRPNRAPPGVPSRSGQASPSRPESPRPPFDL",Mean Lifetime (γ1),[11],2360 ps
same,Mean Lifetime (γ1),[12],2430 ps
